# Experimental data published in article PMC5103362 (Autophagy, 2016).
# B1: Vps34 D731N (KI) (enzyme, S. cerevisiae, UniProt P22543 1-875, looked up)
# chain: MSLNNITFCVSQDLDVPLKVKIKSLEGHKPLLKPSQKILNPELMLIGSNVFPSSDLIVSLQVFDKERNRNLTLPIYTPYIPFRNSRTWDYWLTLPIRIKQLTFSSHLRIILWEYNGSKQIPFFNLETSIFNLKDCTLKRGFESLKFRYDVIDHCEVVTDNKDQENLNKYFQGEFTRLPWLDEITISKLRKQRENRTWPQGTFVLNLEFPMLELPVVFIEREIMNTQMNIPTLKNNPGLSTDLREPNRNDPQIKISLGDKYHSTLKFYDPDQPNNDPIEEKYRRLERASKNANLDKQVKPDIKKRDYLNKIINYPPGTKLTAHEKGSIWKYRYYLMNNKKALTKLLQSTNLREESERVEVLELMDSWAEIDIDDALELLGSTFKNLSVRSYAVNRLKKASDKELELYLLQLVEAVCFENLSTFSDKSNSEFTIVDAVSSQKLSGDSMLLSTSHANQKLLKSISSESETSGTESLPIVISPLAEFLIRRALVNPRLGSFFYWYLKSESEDKPYLDQILSSFWSRLDKKSRNILNDQVRLINVLRECCETIKRLKDTTAKKMELLVHLLETKVRPLVKVRPIALPLDPDVLICDVCPETSKVFKSSLSPLKITFKTTLNQPYHLMFKVGDDLRQDQLVVQIISLMNELLKNENVDLKLTPYKILATGPQEGAIEFIPNDTLASILSKYHGILGYLKLHYPDENATLGVQGWVLDNFVKSCAGYCVITYILGVGNRHLDNLLVTPDGHFFHADFGYILGQDPKPFPPLMKLPPQIIEAFGGAESSNYDKFRSYCFVAYSILRRNAGLILNLFELMKTSNIPDIRIDPNGAILRVRERFNLNMSEEDATVHFQNLINDSVNALLPIVIDHLHNLAQYWRT
# B2: Atg38, full-length (natural protein, S. cerevisiae, UniProt Q05789 1-226, looked up)
# chain: MSTLAEVYTIIEDAEQECRKGDFTNAKAKYQEAIEVLGPQNENLSQNKLSSDVTQAIDLLKQDITAKIQELELLIEKQSSEENNIGMVNNNMLIGSVILNNKSPINGISNARNWDNPAYQDTLSPINDPLLMSILNRLQFNLNNDIQLKTEGGKNSKNSEMKINLRLEQFKKELVLYEQKKFKEYGMKIDEITKENKKLANEIGRLRERWDSLVESAKQRRDKQKN
# notes: also called purified Atg38; free Atg38; source: E. coli, purified (Glutathione Sepharose, TEV, HiTrap Q, S75); not shown: GST, N-terminal, cleaved
# Assays:
# [1] = target: T1, Vps15, full-length (of the Vps15-Vps34 D731N dimer) (S. cerevisiae, UniProt P22219 1-1454); test: negative-stain EM reconstruction; co-purified yeast Vps15-Vps34 D731N and Vps15 (WD40Δ)-Vps34 D731N dimers, 2% uranyl acetate; 28 Å; settings: both partners purified
# T1 construct: Vps15, yeast (S. cerevisiae), full-length; also called ScVps15
# T1 sequence (looked up): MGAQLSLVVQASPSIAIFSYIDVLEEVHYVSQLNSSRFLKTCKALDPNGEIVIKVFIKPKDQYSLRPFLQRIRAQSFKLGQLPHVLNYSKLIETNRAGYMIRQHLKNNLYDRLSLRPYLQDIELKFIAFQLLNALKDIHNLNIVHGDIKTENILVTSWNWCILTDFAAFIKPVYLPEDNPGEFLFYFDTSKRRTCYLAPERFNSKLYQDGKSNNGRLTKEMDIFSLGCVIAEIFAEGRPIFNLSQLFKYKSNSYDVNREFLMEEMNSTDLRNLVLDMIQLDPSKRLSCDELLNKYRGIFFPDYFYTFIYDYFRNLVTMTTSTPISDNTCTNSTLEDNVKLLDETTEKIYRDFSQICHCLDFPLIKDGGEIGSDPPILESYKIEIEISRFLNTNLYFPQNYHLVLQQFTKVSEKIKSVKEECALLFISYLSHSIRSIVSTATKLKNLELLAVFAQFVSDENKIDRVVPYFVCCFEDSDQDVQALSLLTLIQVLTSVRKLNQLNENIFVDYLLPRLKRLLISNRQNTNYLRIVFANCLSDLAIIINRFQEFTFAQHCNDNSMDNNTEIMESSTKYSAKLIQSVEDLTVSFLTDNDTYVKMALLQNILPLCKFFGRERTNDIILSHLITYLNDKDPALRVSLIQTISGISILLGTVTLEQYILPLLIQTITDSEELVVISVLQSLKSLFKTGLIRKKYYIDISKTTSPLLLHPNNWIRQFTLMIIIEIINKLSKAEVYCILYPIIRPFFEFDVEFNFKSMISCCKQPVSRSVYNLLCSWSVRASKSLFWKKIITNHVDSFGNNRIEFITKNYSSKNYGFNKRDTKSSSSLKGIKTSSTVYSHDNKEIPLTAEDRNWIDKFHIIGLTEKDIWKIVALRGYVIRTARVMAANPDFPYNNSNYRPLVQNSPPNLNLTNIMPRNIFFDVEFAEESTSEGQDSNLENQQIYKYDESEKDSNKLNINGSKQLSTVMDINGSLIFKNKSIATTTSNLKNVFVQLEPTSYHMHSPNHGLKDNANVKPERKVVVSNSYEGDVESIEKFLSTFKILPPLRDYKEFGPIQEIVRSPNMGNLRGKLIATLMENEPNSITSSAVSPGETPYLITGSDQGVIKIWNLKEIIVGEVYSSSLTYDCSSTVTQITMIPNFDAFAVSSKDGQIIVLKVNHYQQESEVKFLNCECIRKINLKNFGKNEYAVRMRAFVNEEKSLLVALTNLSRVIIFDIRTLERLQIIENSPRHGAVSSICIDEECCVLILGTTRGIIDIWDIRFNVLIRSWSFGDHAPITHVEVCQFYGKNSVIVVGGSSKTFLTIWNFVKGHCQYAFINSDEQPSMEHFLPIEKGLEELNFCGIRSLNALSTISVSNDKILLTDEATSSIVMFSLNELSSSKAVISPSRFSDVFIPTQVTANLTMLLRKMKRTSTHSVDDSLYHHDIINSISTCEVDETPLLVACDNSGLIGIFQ
# Vps15 (WD40Δ) (1 to 981) = target: T2, Vps15 (WD40Δ) (1 to 981) (S. cerevisiae, UniProt P22219 1-981); test: as above; settings: both partners purified
# T2 construct: Vps15, yeast (S. cerevisiae), residues 1 to 981, without the WD40 domain; also called Vps15Δ WD40; ScVps15 (WD40Δ)
# T2 sequence (looked up): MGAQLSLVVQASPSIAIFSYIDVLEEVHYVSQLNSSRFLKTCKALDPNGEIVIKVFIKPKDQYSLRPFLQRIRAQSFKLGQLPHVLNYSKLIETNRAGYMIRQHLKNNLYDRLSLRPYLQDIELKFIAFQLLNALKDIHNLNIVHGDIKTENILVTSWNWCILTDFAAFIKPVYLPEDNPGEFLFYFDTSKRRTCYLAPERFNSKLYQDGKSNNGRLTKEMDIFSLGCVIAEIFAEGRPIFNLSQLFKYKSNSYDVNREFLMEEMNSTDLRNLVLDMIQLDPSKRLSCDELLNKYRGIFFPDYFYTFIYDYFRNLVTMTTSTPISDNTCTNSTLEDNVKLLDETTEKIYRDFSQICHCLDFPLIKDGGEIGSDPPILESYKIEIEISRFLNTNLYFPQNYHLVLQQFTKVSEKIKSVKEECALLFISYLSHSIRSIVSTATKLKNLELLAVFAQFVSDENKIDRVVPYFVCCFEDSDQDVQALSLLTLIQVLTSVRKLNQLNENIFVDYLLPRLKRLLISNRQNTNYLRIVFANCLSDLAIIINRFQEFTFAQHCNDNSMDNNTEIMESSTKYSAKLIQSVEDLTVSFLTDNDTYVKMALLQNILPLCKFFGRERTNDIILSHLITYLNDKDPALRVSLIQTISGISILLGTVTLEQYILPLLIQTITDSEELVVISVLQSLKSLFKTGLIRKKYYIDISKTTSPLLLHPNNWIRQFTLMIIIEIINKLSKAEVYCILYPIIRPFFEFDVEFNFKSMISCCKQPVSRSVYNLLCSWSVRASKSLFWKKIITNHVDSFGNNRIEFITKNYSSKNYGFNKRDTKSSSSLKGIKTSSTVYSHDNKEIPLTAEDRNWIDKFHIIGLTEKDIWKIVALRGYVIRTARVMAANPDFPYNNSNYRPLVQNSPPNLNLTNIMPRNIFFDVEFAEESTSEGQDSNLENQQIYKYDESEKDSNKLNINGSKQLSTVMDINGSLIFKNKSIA
# [2] = target: T3, yeast complex I (Vps15-Vps34-Vps30-Atg14 heterotetramer) (S. cerevisiae, UniProt P22219 1-1454; P22543 1-875; Q02948 1-557; P38270 1-344); test: SEC-MALS; purified yeast complex I (co-expressed, co-purified) and gel-filtration purified complex I + Atg38 on S200 10/30; 20 mM Tris pH 8.8, 150 mM NaCl, 1 mM TCEP; settings: both partners purified
# T3 construct: Vps15, S. cerevisiae, subunit of complex I; Vps34, S. cerevisiae, subunit of complex I; Vps30/Atg6, S. cerevisiae, subunit of complex I; Atg14, S. cerevisiae, subunit of complex I; expected mass 379 kDa; also called CI; heterotetrameric S. cerevisiae complex I; copies: 1 + 1 + 1 + 1
# T3 sequence (Q02948 whole entry, one chain of several): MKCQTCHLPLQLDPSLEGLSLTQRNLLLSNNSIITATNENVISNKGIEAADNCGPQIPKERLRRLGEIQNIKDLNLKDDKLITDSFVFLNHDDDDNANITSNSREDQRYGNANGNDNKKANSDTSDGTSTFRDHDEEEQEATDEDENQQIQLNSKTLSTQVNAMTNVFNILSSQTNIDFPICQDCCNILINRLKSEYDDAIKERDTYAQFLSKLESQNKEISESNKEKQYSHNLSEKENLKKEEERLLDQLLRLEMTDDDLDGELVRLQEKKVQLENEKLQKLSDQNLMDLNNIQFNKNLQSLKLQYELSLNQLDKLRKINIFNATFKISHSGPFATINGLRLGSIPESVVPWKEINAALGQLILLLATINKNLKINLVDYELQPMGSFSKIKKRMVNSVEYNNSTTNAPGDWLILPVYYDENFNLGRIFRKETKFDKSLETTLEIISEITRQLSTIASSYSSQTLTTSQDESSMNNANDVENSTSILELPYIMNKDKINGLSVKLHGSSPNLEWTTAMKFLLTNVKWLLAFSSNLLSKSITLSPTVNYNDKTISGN
# [3] = target: T4, Atg14 (subunit of the purified yeast complex I) (S. cerevisiae, UniProt P38270 1-344); test: HDX-MS; complex I, free Atg38 and gel-filtered complex I + Atg38; 2.5 µM protein, 20 mM Tris pH 8.0, 50 mM NaCl, 2 mM TCEP, 75% D2O, 3 to 3000 sec at 23°C; settings: both partners purified
# T4 construct: Atg14, S. cerevisiae
# T4 sequence (looked up): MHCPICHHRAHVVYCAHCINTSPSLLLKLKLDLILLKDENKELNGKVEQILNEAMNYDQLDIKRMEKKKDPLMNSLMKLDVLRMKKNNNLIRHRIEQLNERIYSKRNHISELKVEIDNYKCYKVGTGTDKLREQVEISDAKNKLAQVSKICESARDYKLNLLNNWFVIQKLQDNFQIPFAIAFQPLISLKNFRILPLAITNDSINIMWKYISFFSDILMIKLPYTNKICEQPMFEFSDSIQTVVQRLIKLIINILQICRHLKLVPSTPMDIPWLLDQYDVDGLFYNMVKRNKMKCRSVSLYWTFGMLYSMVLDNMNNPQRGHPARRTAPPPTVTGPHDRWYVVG
# [4] = target: the molecule itself; test: SEC-MALS; Atg38 full-length, MIT domain and deletion variants alone on S75 10/30; 20 mM Tris pH 7.9, 300 mM NaCl, 1 mM TCEP
# [5] = target: T3, yeast complex I …; test: SEC; purified yeast complex I mixed with purified Atg38 at 6:1 or 1:6 molar ratio (8.6 µM complex I with 1.4 or 51.7 µM Atg38), on ice 30 min, S200 10/30; 20 mM Tris pH 8.8, 150 mM NaCl, 0.5 mM TCEP; fractions on SDS-PAGE; settings: both partners purified
Binder,binding result [1],binding result (Vps15 (WD40Δ) (1 to 981)),stoichiometry N [2],binding result [3],stoichiometry N [4],stoichiometry N [5]
B1,binds,binds,,,,
B2,,,1 Atg38 homodimer per complex I,binds,2,2 Atg38 chains per complex I
